According to article PMC6938032 (2020):

T1: Neutrophil elastase (Homo sapiens, UniProt P08246)
T1 chain: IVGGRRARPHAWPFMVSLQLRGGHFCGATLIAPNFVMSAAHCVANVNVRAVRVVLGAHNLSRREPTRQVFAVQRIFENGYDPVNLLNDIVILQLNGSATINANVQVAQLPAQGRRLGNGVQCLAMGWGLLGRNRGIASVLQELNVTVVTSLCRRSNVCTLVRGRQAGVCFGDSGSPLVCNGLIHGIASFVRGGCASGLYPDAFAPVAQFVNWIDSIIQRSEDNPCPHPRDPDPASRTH


How the values were obtained:
[1] = target: Neutrophil elastase (Homo sapiens) (UniProt P08246); assay: progress curve inhibition analysis; conditions: cited from earlier work
[2] = target: T1, Neutrophil elastase; assay: progress curve inhibition analysis
[3] = target: T1, Neutrophil elastase; assay: SPR

| Molecule | Ki [1] [nM] | Ki [2] [nM] | Kd [3] [nM] |
| --- | --- | --- | --- |
| EapH1 (from UniProt A0A0H3KEC5) | 0.021 |  |  |
| EapH2 (protein) AEKDKLPATQKAKEMQNVPYTIAVDGIMAFNQSYLNLPKDSQLSYLDLGNKVKALLYDERGVTPEKIRNAKSAVYTITWKDGSKKEVDLKKDSYTANLFDSNSIKQIDINVKTK |  | 2.11 | 2.16 |
